The record followed here is patent US20190359687A1 (Bayer, published 2019).

For experiment [1], the target named is T1, glycophorin A peptide GP5 (human, biotin at the N-terminus).
T1 construct: Residues 42 to 61 of the human glycophorin A extracellular domain
T1 peptide: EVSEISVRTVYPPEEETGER
Kind of experiment: Octet, GP5 peptide on the probe, fusion protein in solution, 1:1 fit. Background: BLI is a label-free optical method that tracks binding on a fibre tip over time.

Experiment [2] concerns the target T2, native human glycophorin A protein (human, UniProt P02724 20-150).
T2 construct: mature; also called Hu-nat GPA
T2 sequence (looked up): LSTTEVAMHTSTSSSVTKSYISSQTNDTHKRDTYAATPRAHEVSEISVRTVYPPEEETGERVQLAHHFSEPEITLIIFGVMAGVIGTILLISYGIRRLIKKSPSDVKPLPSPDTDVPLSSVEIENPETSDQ
Kind of experiment: ELISA, Fab on coated native human GPA. For orientation: An ELISA detects its analyte on a solid surface through an enzyme-linked reagent.

The target in experiment [3] is T3, human glycophorin A on human red blood cells or red blood cell membranes (human, UniProt P02724 20-150).
T3 construct: whole, on cells; also called hRBC; human RBC membranes
T3 sequence (looked up): T2 sequence (looked up)
Description: ELISA, Fab on coated human RBC membranes.
Description: These membranes are prepared by first isolating red blood cells from citrated whole blood. Citrated whole blood is layered on to Ficol and centrifuged at low speed for 20 minutes to pellet the red blood cells. The supernatant containing plasma and other blood cells is discarded and the red blood cell pellet is subsequently washed 3 times in 10 cell volumes of phosphate buffered saline (PBS). A 10 ml pellet of purified red blood cells is resuspended in 30 ml of cold low osmorality 20 mM phosphate buffer (pH7.4) and incubated for 30 mins to break open the RBC. After Centrifugation at 10,000 rpm for 30 min at 5° C. the hemoglobin containing supernatant is discarded. To the membrane pellet another 30 ml of 20 mM phosphate buffer is added and the sample centrifuged again at 10,000 rpm for 30 min at 5° C. to pellet the membrane fraction. This wash and centrifugation step is repeated another 4 times. The red blood cell membranes are then resuspended in 20 mL of PBS to achieve an equivalent of approximately 2.5E9 cells/mL and stored frozen at −20° C. Binding of antibodies to RBC ghost can be measured by ELISA in which the RBC ghost suspension (5×10⁶ in 100 ul PBS) was added to each well of flat bottom 96-well ELISA microtiter plates (2HB, Immunolon) and the plates incubated overnight at 4° C. The plates were blocked with Starting blocking buffer (Thermo Fisher) for 2 hours at room temperature (RT). Antibodies or other test molecules were added to each well and incubated for 1.5 hours at RT. After 4 washes 100 ul of an appropriate detection antibody was added to each well and incubated for 1 hour at RT. After 4 washes the detection antibody was measured using appropriate detection reagents.

The target of experiment [4] is T4, Cynomolgus monkey recombinant glycophorin A ectodomain (Cynomolgus monkey).
T4 construct: extracellular domain
Description: ELISA, Fab on coated recombinant cyno GPA ectodomain.

The target in experiment [5] is T3, human glycophorin A on human red blood …. Kind of experiment: SPR (Biacore), Fab over human RBC membranes, 1:1 fit. (SPR reads the build-up and loss of mass on a sensor chip optically.)
Description: Kinetic analysis of the antibody binding to human red blood cell membranes was also performed using surface plasmon resonance (SPR) using a Biacore instrument. In this assay membranes prepared from human red blood cells were attached to a L1 sensor matrix and antibodies were flowed over the RBC membranes.
The target of experiment [6] is T5, recombinant human glycophorin A ectodomain protein (human, UniProt P02724 20-91).
T5 construct: 72 amino acids of the extracellular region; also called Hu-rec GPA
T5 sequence: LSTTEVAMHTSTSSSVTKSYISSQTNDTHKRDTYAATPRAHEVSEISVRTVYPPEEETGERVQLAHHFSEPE
Description: ELISA, Fab on coated recombinant human GPA ectodomain.

For experiment [7], the target named is T6, Cynomolgus monkey glycophorin A on Cynomolgus monkey red blood cells (Cynomolgus monkey).
T6 construct: whole, on cells; also called Cyno RBC; Cyno GPA
Kind of experiment: FACS, RBC Cy01.
Description: (§1) The binding of the humanized variants to intact red blood cells (RBC) from humans (Hu01 to 03; 3 individuals), Rhesus monkey (Rh01 to 03; 3 individuals) and Cynomolgus monkey (Cy01 to 02; 2 individuals) was measured by fluorescence activated cell sorting (FACS).

The target of experiment [8] is T6, Cynomolgus monkey glycophorin A on …. Description: FACS, RBC Cy02.
Description: as §1
Experiment [9] addresses T7, Rhesus monkey glycophorin A on Rhesus monkey red blood cells (Rhesus monkey, UniProt A0A1D5Q349 20-150).
T7 construct: whole, on cells; also called Rhesus RBC; monkey GPA
T7 sequence: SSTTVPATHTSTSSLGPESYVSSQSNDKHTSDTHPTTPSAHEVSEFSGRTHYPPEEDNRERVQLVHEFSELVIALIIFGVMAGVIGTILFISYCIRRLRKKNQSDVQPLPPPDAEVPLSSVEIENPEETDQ
Description: FACS, RBC Rh01.
Description: as §1

Experiment [10] deals with T7, Rhesus monkey glycophorin A on Rhesus …. Kind of experiment: FACS, RBC Rh02.
Experiment [11] shares this target. Kind of experiment: FACS, RBC Rh03.
Description: as §1
Experiment [12] concerns the target T8, human glycophorin A in the red blood cell membrane (human, UniProt P02724 20-150).
T8 construct: whole, on cells; used for intact RBC, isolated RBC membranes and transfected cells; the assay field tells which; also called GPA; hGPA
T8 sequence (looked up): T2 sequence (looked up)
Description: FACS, RBC Hu01.
Description: as §1

Experiment [13] addresses T8, human glycophorin A in the red blood …. Description: FACS, RBC Hu02.
Description: as §1
Experiment [14] has the same target. Description: FACS, RBC Hu03.
Description: as §1

Changes are numbered by the printed parent chain. In names and notes the source's numbering stands.

B1: TPP-8744 FVIII-scFv fusion protein (other)
chain: ATRRYYLGAVELSWDYMQSDLGELPVDARFPPRVPKSFPFNTSVVYKKTLFVEFTDHLFNIAKPRPPWMGLLGPTIQAEVYDTVVITLKNMASHPVSLHAVGVSYWKASEGAEYDDQTSQREKEDDKVFPGGSHTYVWQVLKENGPMASDPLCLTYSYLSHVDLVKDLNSGLIGALLVCREGSLAKEKTQTLHKFILLFAVFDEGKSWHSETKNSLMQDRDAASARAWPKMHTVNGYVNRSLPGLIGCHRKSVYWHVIGMGTTPEVHSIFLEGHTFLVRNHRQASLEISPITFLTAQTLLMDLGQFLLFCHISSHQHDGMEAYVKVDSCPEEPQLRMKNNEEAEDYDDDLTDSEMDVVRFDDDNSPSFIQIRSVAKKHPKTWVHYIAAEEEDWDYAPLVLAPDDRSYKSQYLNNGPQRIGRKYKKVRFMAYTDETFKTREAIQHESGILGPLLYGEVGDTLLIIFKNQASRPYNIYPHGITDVRPLYSRRLPKGVKHLKDFPILPGEIFKYKWTVTVEDGPTKSDPRCLTRYYSSFVNMERDLASGLIGPLLICYKESVDQRGNQIMSDKRNVILFSVFDENRSWYLTENIQRFLPNPAGVQLEDPEFQASNIMHSINGYVFDSLQLSVCLHEVAYWYILSIGAQTDFLSVFFSGYTFKHKMVYEDTLTLFPFSGETVFMSMENPGLWILGCHNSDFRNRGMTALLKVSSCDKNTGDYYEDSYEDISAYLLSKNNAIEPRSFSQNGGGGSTGGTGGSSGGGTGSGGGGTGGSGGTDIQLTQSPSFLSASVGDRVTITCRASSSVSYIYWFQQKPGKAPKLLIYATSTLQSGVPSRFSGSGSGTEYTLTISSLQPEDFATYYCHQRNSFPYTFGQGTKLEIKGGGGSGGGGSGGGGSGGGGSEVQLVQSGAEVKKPGASVKVSCKASGYTFTRYTIHWVRQAPGQGLEWMGYINPSSGYTRYNPKFKGRVTMTRDKSTSTAYMELRSLRSDDTAVYYCWTGTRDYWGQGTTVTVSSGGGGSQNPPVLKRHQREITDENQSPRSFQKKTRHYFIAAVERLWDYGMSSSPHVLRNRAQSGSVPQFKKVVFQEFTDGSFTQPLYRGELNEHLGLLGPYIRAEVEDNIMVTFRNQASRPYSFYSSLISYEEDQRQGAEPRKNFVKPNETKTYFWKVQHHMAPTKDEFDCKAWAYFSDVDLEKDVHSGLIGPLLVCHTNTLNPAHGRQVTVQEFALFFTIFDETKSWYFTENMERNCRAPCNIQMEDPTFKENYRFHAINGYIMDTLPGLVMAQDQRIRWYLLSMGSNENIHSIHFSGHVFTVRKKEEYKMALYNLYPGVFETVEMLPSKAGIWRVECLIGEHLHAGMSTLFLVYSNKCQTPLGMASGHIRDFQITASGQYGQWAPKLARLHYSGSINAWSTKEPFSWIKVDLLAPMIIHGIKTQGARQKFSSLYISQFIIMYSLDGKKWQTYRGNSTGTLMVFFGNVDSSGIKHNIFNPPIIARYIRLHPTHYSIRSTLRMELMGCDLNSCSMPLGMESKAISDAQITASSYFTNMFATWSPSKARLHLQGRSNAWRPQVNNPKEWLQVDFQKTMKVTGVTTQGVKSLLTSMYVKEFLISSSQDGHQWTLFFQNGKVKVFQGNQDSFTPVVNSLDPPLLTRYLRIHPQSWVHQIALRMEVLGCEAQDLY
notes: The entry is the mature protein; mostly a 2 chain molecule
By Kd is commonly meant the constant that tells how readily two partners part at equilibrium. Broadly, the koff is a measure of how fast the partners let go of each other. By kon is commonly meant a measure of how fast the partners come together. In experiment [1], B1 had a Kd of 7.35 nM, a koff of 0.0048 s⁻¹ and a kon of 652000 M⁻¹ s⁻¹.

B2: TPP-5678, Hu6C12-24 Fab variant VH: (I48M, D66G, L70M, T72R) (Fab, V domains shown)
VH: EVQLVQSGAEVKKPGASVKVSCKASGYTFTTYTIHWVRQAPGQGLEWMGYINPSSDYTRYNPKFKGRVTMTRDKSTSTAYMELRSLRSDDTAVYYCQTGTRDYWGQGTTVTVSS
VL: DIQLTQSPSFLSASVGDRVTITCSAASSVSYIYWFQQKPGKAPKLLIYSTSTLPSGVPSRFSGSGSGTEYTLTISSLQPEDFATYYCHQRNSFPFTFGQGTKLEIKR
notes: Built on the parental Fab TPP-4935
As to B2, the “binding in ELISA relative to parental Fab” value was 1.2 relative to parental Fab in experiment [2], 0.8 relative to parental Fab in [3], 1.2 relative to parental Fab in [4] and 1.1 relative to parental Fab in experiment [6]. The molecule also returned a Kd in experiment [5] of 37 nM. Moreover, in [5], the koff stood at 0.041 s⁻¹. Moreover, in experiment [5], the kon was determined as 1.1e+06 M⁻¹ s⁻¹.

B3: Hu6C12-21 (antibody, V domains shown)
VH: B2 VH with G66D, M70L, R72T, K74T, T98R
VL: DIQLTQSPSFLSASVGDRVTITCSAASSVSYIYWFQQKPGKAPKLLIYSTSTLPSGVPSRFSGSGSGTEYTLTISSLQPEDFATYYCHQRNSFPFTFGQGTKLEIK
notes: IgG format; VH.1d + Vk.1b
On to B3, for which the fluorescence intensity is 908 in experiment [7]; 1120 in experiment [8]; 1470 in experiment [9]; 1330 in [10]; 1340 in experiment [11].

B4: TPP-5842, Hu6C12-24 Fab variant VL: (S24R, A26S, S49A, P54Q, F95Y); VH: (D66G, L70M, T72R) (Fab, V domains shown)
VH: B2 VH with M48I
VL: B2 VL with S24R, A26S, S49A, P54Q, F95Y
notes: as for B2
On to B4, for which the “binding in ELISA relative to parental Fab” value was 5.9 relative to parental Fab in experiment [2], 7 relative to parental Fab in experiment [3], 1.1 relative to parental Fab in experiment [4] and 4.7 relative to parental Fab in experiment [6]. In addition, the Kd in experiment [5] is 3.9 nM. Further, the koff in experiment [5] stood at 0.0059 s⁻¹. For the same molecule, the kon in experiment [5] came out at 1.5e+06 M⁻¹ s⁻¹.

B5: TPP-5840, Hu6C12-24 Fab variant VL: (S24R, A26S, S49A, P54Q, F95Y); VH: (L70M, T72R) (Fab, V domains shown)
VH: B2 VH with M48I, G66D
VL: B2 VL with S24R, A26S, S49A, P54Q, F95Y
notes: as for B2
Regarding B5, the “binding in ELISA relative to parental Fab” value is 5.3 relative to parental Fab in [2], 6 relative to parental Fab in experiment [3], 1 relative to parental Fab in [4] and 4.2 relative to parental Fab in experiment [6]. In experiment [5], the Kd is 4.1 nM. For the same molecule, in [5], the koff came to 0.0046 s⁻¹. Besides, the kon in experiment [5] worked out at 1.1e+06 M⁻¹ s⁻¹.

B6: Hu6C12-14 (antibody, V domains shown)
VH: B2 VH with G66D, M70L, R72T, K74T, Q97A
VL: B3 VL with F35Y
notes: IgG format; VH.1e + Vk.1a
On to B6, for which the fluorescence intensity turned out to be 978 in experiment [7]; 1080 in experiment [8]; 514 in experiment [12]; 298 in experiment [13]; 384 in experiment [14]; 1480 in experiment [9]. Also, the fluorescence intensity in [10] and in [11] was 1480 throughout.

B7: Hu6C12-11 (antibody, V domains shown)
VH: B2 VH with G66D, R72T, K74T, Q97A
VL: B3 VL with F35Y
notes: IgG format; VH.1b + Vk.1a
On to B7, for which the fluorescence intensity in experiment [7] came to 960; in [8], 1020; in experiment [12] it was 548; in experiment [13], 315; in experiment [14] it was 387; in experiment [9] it was 1530. Further, the fluorescence intensity in experiment [10] came out at 1440; in experiment [11], 1420.

B8: TPP-5836, Hu6C12-24 Fab variant VL: (S24R, A26S, S49A, P54Q, F95Y); VH: (I48M, L70M, T72R) (Fab, V domains shown)
VH: B2 VH with G66D
VL: B2 VL with S24R, A26S, S49A, P54Q, F95Y
notes: as for B2
For B8, the “binding in ELISA relative to parental Fab” value in experiment [2] is 5.1 relative to parental Fab; in [3], 4.7 relative to parental Fab; in experiment [4], 1 relative to parental Fab; in experiment [6], 4.1 relative to parental Fab. For the same molecule, the Kd in experiment [5] was 3.6 nM. This molecule also came in with a koff in [5] of 0.0042 s⁻¹. This molecule yielded a kon in experiment [5] of 1.2e+06 M⁻¹ s⁻¹.

B9: TPP-5838, Hu6C12-24 Fab variant VL: (S24R, A26S, S49A, P54Q, F95Y); VH: (I48M, D66G, L70M) (Fab, V domains shown)
VH: B2 VH with R72T
VL: B2 VL with S24R, A26S, S49A, P54Q, F95Y
notes: as for B2
As for B9, the “binding in ELISA relative to parental Fab” value is 5.6 relative to parental Fab in experiment [2], 9.3 relative to parental Fab in [3], 1.1 relative to parental Fab in [4] and 4.7 relative to parental Fab in [6]. The Kd in [5] was 3.1 nM. Also, the koff in experiment [5] worked out at 0.004 s⁻¹. The molecule also came in with a kon in experiment [5] of 1.3e+06 M⁻¹ s⁻¹.
